The source of these data is article PMC6083090, “CNBP Homologues Gis2 and Znf9 Interact with a Putative G-Quadruplex-Forming 3′ Untranslated Region, Altering Polysome Association and Stress Tolerance in Cryptococcus neoformans”.

The target in data set [1] is T1, rZnf9 (Cryptococcus neoformans (H99), UniProt J9VQH8 1-184).
T1 sequence: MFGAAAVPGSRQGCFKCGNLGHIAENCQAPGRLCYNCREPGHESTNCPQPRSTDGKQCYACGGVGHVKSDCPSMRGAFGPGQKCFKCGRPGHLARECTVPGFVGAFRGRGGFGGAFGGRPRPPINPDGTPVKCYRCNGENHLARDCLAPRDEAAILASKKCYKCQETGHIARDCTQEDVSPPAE
The experiment in a line: UV-cross-linked EMSA; 5 mM Mg2+; EMSA: 15 mM HEPES pH 7.4, 40 mM KCl, 5 mM MgCl2, 5% glycerol, 0.5 pmol probe in 20 µl, room temperature 20 min, then UV cross-link on ice 10 min. The note with it: protein: recombinant; tags: His (pET14b, Ni-NTA); label: 5'-TYE705; putative intramolecular G4. (Mobility shift assays separate free from complexed probe on a gel.)

The target of data set [2] is T2, rGis2 (Cryptococcus neoformans (H99), UniProt J9VQ17 1-201).
T2 sequence: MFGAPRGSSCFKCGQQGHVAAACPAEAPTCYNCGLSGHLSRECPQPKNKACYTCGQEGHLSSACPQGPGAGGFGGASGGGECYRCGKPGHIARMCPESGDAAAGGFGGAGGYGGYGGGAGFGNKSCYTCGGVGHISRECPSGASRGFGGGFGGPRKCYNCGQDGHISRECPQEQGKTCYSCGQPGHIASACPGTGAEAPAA
The data set is described as above. The note with it: protein: recombinant; tags: His (pET14b, Ni-NTA); label: 5'-TYE705; putative intramolecular G4.

For data set [3], the target named is T1, rZnf9. The experiment in a line: competition; 25x and 50x competitor, UV-cross-linked EMSA; EMSA: 15 mM HEPES pH 7.4, 40 mM KCl, 5 mM MgCl2, 5% glycerol, 0.5 pmol probe in 20 µl, room temperature 20 min, then UV cross-link on ice 10 min. Particulars: protein: recombinant; tags: His (pET14b, Ni-NTA); label: none; no G4.
The target in data set [4] is T2, rGis2. The description is as above. Particulars: protein: recombinant; tags: His (pET14b, Ni-NTA); label: none; no G4.

With UGCAGUGGAGUUGGAGUGGGGAUGGGAUGUUGGGCAGUGGGCCCGUGGAU (structured_RNA) [TYE705-RPL2-3'UTR], the binding result in the data set with rZnf9 [1] and with rGis2 [2] was “binds” throughout.

Consider UGCAGUGGAGUUGGAGUGAAACCAAACCGUUGGGCAGUGGGCCCGUGGAU (ssRNA) [mt competitor (cons mt)], for which the binding result with rZnf9 [3] and in the data set with rGis2 [4] was “no binding” in each case.
